Self-cleavage data for 167 variants are collected here from the RNAGym collection of RNA variant scans (doi:10.7554/elife.80360).

The chains are these.
B1: HDV Ribozyme (parent)
chain: GGCCGGCAUGGUCCCAGCCUCCUCGCUGGCGCCGGCUGGGCAACAUUCCGAGGGGACCGUCCCCUCGGUAAUGGCGAAUGGGACCCA

This data set covers variants of B1. Briefly: self-cleavage, relative activity (ratio to wild type); higher = more cleavage; co-transcriptional.
On to G5U G50C, for which the self-cleavage was determined as 0.192. To C49A G81U belongs 0.26. To A8C G54A belongs 0.759; to A71C U72A, 0.332; to U65C U79C, 0.415.

With C62G C75U, the self-cleavage turned out to be 0.189. To C49U C61U belongs 0.851; to C18A C22A, 0.117; to G2C C26G, 0.113. To U12A G38C belongs 0.0489; to C26U A83U, 0.79. The figure for G5A G38U is 0.0804. In the case of U46C C84U, the self-cleavage came to 0.485.

Consider C41A G73A, for which the self-cleavage worked out at 0.912. The figure for G2C G34C is 0; for C58U U60C it is 1.19; for C15U A16G it is 1.05. To C32A C33U belongs 0.0779.

On to C33U C36U, for which the self-cleavage amounted to 0.519. To G67C C75G belongs 0.0475.

Regarding U23A G25A, the self-cleavage turned out to be 0.277. For the variant U12A C41U, the self-cleavage is 0.147.

C58G C63A: the self-cleavage is 0.813. To G11A G54C belongs 0.479. To G28A U72G belongs 0.107; to G35C G38U, 0.0875; to C32A C48G, 0.0462. The figure for C63G C66U is 0.386; for G1U C4G it is 0.634.

With G39A G81A, the self-cleavage was 0.0898. Take U9C G35U: the self-cleavage turned out to be 0.135. The figure for G54C A77G is 0.831. To G6A C33A belongs 0.0678; to U27G G80A, 0.533; to G40C C86A, 0.363. Consider G40A C66A, for which the self-cleavage is 0.808. The figure for C18U G76C is 0.978. The figure for C21G G35U is 0.104. For C33G A70C, the self-cleavage was 0.145.

On to C19A G54U, for which the self-cleavage was determined as 0.201. For the variant G28U U46A, the self-cleavage stood at 0.111. The figure for G28A A42U is 0.0723; for C22A C33A it is 0.0314. The figure for C75A U79A is 0.256; for C15A C26A it is 0.529; for A56C G76A it is 1.17.

As for G2A U60G, the self-cleavage was 0.314. Turning to C24A G82A, the self-cleavage worked out at 0.223. With C22A U65C, the self-cleavage came to 0.446.

On to C7G C48G, for which the self-cleavage came to 0. The figure for C64G A83C is 0.373; for U69C C85U it is 1.15; for G34C G59A it is 0.143.

With U27A G59U, the self-cleavage is 0.95.

Turning to C61A A70C, the self-cleavage was 1.01. The figure for G28C C61A is 0.0755; for G34A it is 0.189. To G29C G68A belongs 0.163.

With A43G C44G, the self-cleavage amounted to 0.798. In the case of U12G C14U, the self-cleavage was 1.2. The figure for U47C G50C is 0.831; for C14A G29A it is 0.115; for U23A C41A it is 1.07. As for C24U C33G, the self-cleavage was determined as 0.166.

For C26U G81U, the self-cleavage was 0.439. To G39U C48A belongs 0.658.

Turning to A43U U60A, the self-cleavage was found to be 0.594. Turning to G29C C61A, the self-cleavage is 0.0791. For C19G G38C, the self-cleavage came out at 0.0639. To C4U C41A belongs 0.434; to G35A G80C, 0.162; to C64G U69C, 1.29. To G34A C41A belongs 0.157; to C26U A45U, 0.77. To A8G U20G belongs 0.151; to C3G C7U, 0.226; to C63G G74C, 0.128.

In the case of G40C C66G, the self-cleavage worked out at 0.253. With C14U U69G, the self-cleavage is 0.755. The figure for G29C C32G is 0.0639; for A8U C63U it is 0.862; for C7A G54C it is 0.8.

Regarding C66G A83U, the self-cleavage is 0.415. The figure for U47C C63A is 0.739. C30G C66U: the self-cleavage was determined as 0.185.

As to G1U C26G, the self-cleavage was found to be 0.469.

Regarding G25A G29U, the self-cleavage is 0.0941. For the variant C4A A87C, the self-cleavage was 0.21. Consider C14A G54U, for which the self-cleavage was 0.628.

Turning to A16U G52C, the self-cleavage is 0.696.

On to U12G A42U, for which the self-cleavage came out at 0.415. To U27C G82U belongs 0.208. To C32U C75A belongs 0.0692. The figure for U69C G81U is 0.369; for G10C A78C it is 0.185.

For the variant C4U G68C, the self-cleavage amounted to 0.635.

In the case of C30U G67A, the self-cleavage was found to be 0.578. To C44U G67U belongs 0.499; to C4U A16U, 0.462. The figure for C18A U37A is 0.0462; for G11A U69G it is 0.374; for G11C G17U it is 0.332. Turning to C21A G34U, the self-cleavage was found to be 0.0647. To C44U U46A belongs 0.767.

On to G50A C86G, for which the self-cleavage amounted to 0.884.

As for G80A C85A, the self-cleavage was determined as 0.408.

For the variant C32A C62U, the self-cleavage came out at 0.341.

Turning to G52C C62A, the self-cleavage came out at 0.878. Turning to G10C U12A, the self-cleavage was 0.123.

As to C58A U65A, the self-cleavage stood at 0.9. Regarding U69G A87G, the self-cleavage is 0.876. To U9G G74A belongs 0.751; to G6U U27G, 0.172; to C3G U65C, 0.817. C3G C41U: the self-cleavage amounted to 0.547. With A42G C48A, the self-cleavage came out at 0.7. The figure for A51C C86G is 0.712. To C64U U79C belongs 0.306; to C32G C64A, 0.0755. The figure for U46A G80A is 0.147; for C44A A71C it is 0.332. For C13G U60G, the self-cleavage stood at 0.

C4A C75A: the self-cleavage stood at 0.157. The figure for C18U A43C is 0.295; for C58A C64G it is 1.06; for C24G G52A it is 0.123. The figure for G34U G53A is 0.189; for G6U U9G it is 0.511. The figure for U12C C86U is 0.578; for C4U G59C it is 0.81. As for G17A U60A, the self-cleavage stood at 0.787. To C44U C61U belongs 0.716. The figure for U9A U37A is 0; for C18U G53C it is 0.607.

For A45G C64A, the self-cleavage stood at 0.658.

Turning to A70C A78G, the self-cleavage was 0.519.

As for C26G C85U, the self-cleavage worked out at 0.956. To G59C A87U belongs 0.981; to C19A U65C, 0.155; to G17C A56U, 0.427. The figure for C61G G76A is 0.906. To G5U U12A belongs 0.332; to A43G C85U, 0.446. As to C4G C66G, the self-cleavage is 0.727. For the variant C61U U79C, the self-cleavage amounted to 0.487. To C13U A78U belongs 0; to C14G C61A, 0.88. The figure for U9A C19U is 0.113.

Regarding G1C C4U, the self-cleavage amounted to 0.0489. For the variant C3A G81U, the self-cleavage is 0.107. For G34A C62U, the self-cleavage worked out at 0.106. In the case of C13G C61G, the self-cleavage is 0.0852. Regarding G10U C41U, the self-cleavage was found to be 0.583. The figure for G40A A77G is 1.05; for U37G G76A it is 0.185. Take U23G A78G: the self-cleavage was 0.262. The figure for C26G G54A is 0.655; for G38A G67U it is 0.135; for C19G C58G it is 0.0739.

Turning to C7A C41U, the self-cleavage is 0.489. The figure for U60C A83G is 0.707; for G28C C41G it is 0.

As to G53A G82A, the self-cleavage stood at 0.466. The figure for G40C G80U is 0.0817; for G55A G76C it is 1.09.

As to C22U G76U, the self-cleavage was 0.794. To C84G A87G belongs 0.282.
